Reference: patent publication US20200277374A1 (Alector, published 2020)

Experiments:
Y50A = target: T1, Y50A (human, UniProt Q9Y286); experiment: flow cytometry on HEK-293T cells expressing the mutant; mean % of wild-type signal (range of duplicates)
T1 construct: clone of the siglec-7 mutation library; also called Siglec-7 Y50A
Description: (§1) Shotgun mutagenesis epitope mapping of anti-siglec-7 antibodies was performed using an alanine-scanning library for the siglec-7 protein. […] Each of residues 19 to 353 was mutated, representing the siglec-7 extracellular domain, most to alanine, while alanine codons were mutated to serine. In total, 335 siglec-7 mutant expression constructs were generated, sequences confirmed, and arrayed into a 384-well plate, one mutant per well.
(§2) Cells were then incubated with MAbs diluted in 10% o normal goat serum (NGS) (Sigma-Aldrich, St. Louis, Mo.). Prior to library screening, primary MAb concentrations were determined using an independent immunofluorescence titration curve against cells expressing wild-type siglec-7 to ensure that signals were within the linear range of detection. MAbs were detected using 3.75 μg/ml AlexaFluor488-conjugated secondary antibody (Jackson immunoResearch Laboratories, Westgrove, Pa.) in 10% NGS. Cells were washed twice with PBS−/− and resuspended in Cellstripper (Cellgro, Manassas, Va.) with 0.1% BSA (Sigma-Aldrich, St. Louis, Mo.). Mean cellular fluorescence was detected using the Intellicyt high throughput flow cytometer (HTFC, Intellicyt, Albuquerque, N. Mex.). MAb reactivities against each mutant clone were calculated relative to wild-type siglec-7 protein reactivity by subtracting the signal from mock-transfected controls, and normalizing to the signal from wild-type siglec-7-transfected controls.

I72A = target: T2, I72A (human, UniProt Q9Y286); experiment: as above
T2 construct: clone of the siglec-7 mutation library; also called Siglec-7 I72A
Description: as §1, §2

W74A = target: T3, W74A (human, UniProt Q9Y286); experiment: as above
T3 construct: clone of the siglec-7 mutation library; also called Siglec-7 W74A
Description: as §1, §2

N81A = target: T4, N81A (human, UniProt Q9Y286); experiment: as above
T4 construct: clone of the siglec-7 mutation library; also called Siglec-7 N81A
Description: as §1, §2

T103A = target: T5, T103A (human, UniProt Q9Y286); experiment: as above
T5 construct: clone of the siglec-7 mutation library; also called Siglec-7 T103A
Description: as §1, §2

K104A = target: T6, K104A (human, UniProt Q9Y286); experiment: as above
T6 construct: clone of the siglec-7 mutation library; also called Siglec-7 K104A
Description: as §1, §2

T107A = target: T7, T107A (human, UniProt Q9Y286); experiment: as above
T7 construct: clone of the siglec-7 mutation library; also called Siglec-7 T107A
Description: as §1, §2

R124A = target: T8, R124A (human, UniProt Q9Y286); experiment: as above
T8 construct: clone of the siglec-7 mutation library; also called Siglec-7 R124A
Description: as §1, §2

M185A = target: T9, M185A (human, UniProt Q9Y286); experiment: as above
T9 construct: clone of the siglec-7 mutation library; also called Siglec-7 M185A
Description: as §1, §2

M30A = target: T10, M30A (human, UniProt Q9Y286); experiment: as above
T10 construct: clone of the siglec-7 mutation library; also called Siglec-7 M30A
Description: as §1, §2

V44A = target: T11, V44A (human, UniProt Q9Y286); experiment: as above
T11 construct: clone of the siglec-7 mutation library; also called Siglec-7 V44A
Description: as §1, §2

R45A = target: T12, R45A (human, UniProt Q9Y286); experiment: as above
T12 construct: clone of the siglec-7 mutation library; also called Siglec-7 R45A
Description: as §1, §2

S47A = target: T13, S47A (human, UniProt Q9Y286); experiment: as above
T13 construct: clone of the siglec-7 mutation library; also called Siglec-7 S47A
Description: as §1, §2

F48A = target: T14, F48A (human, UniProt Q9Y286); experiment: as above
T14 construct: clone of the siglec-7 mutation library; also called Siglec-7 F48A
Description: as §1, §2

[1] = target: human Siglec-7 expressed on human cells (primary monocytes, dendritic cells, macrophages, NK cells, microglia, U937 cells, human cells of humanized mice) (human) (UniProt Q9Y286); experiment: cell-based or functional assay
[2] = target: human Siglec-7 expressed on human cells (primary monocytes, dendritic cells, macrophages, NK cells, microglia, U937 cells, human cells of humanized mice) (human) (UniProt Q9Y286); experiment: FACS, human primary monocytes; isotype control (background)
[3] = target: human Siglec-7 expressed on human cells (primary monocytes, dendritic cells, macrophages, NK cells, microglia, U937 cells, human cells of humanized mice) (human) (UniProt Q9Y286); experiment: FACS, human primary macrophages; isotype control (background)
[4] = target: human Siglec-7 expressed on human cells (primary monocytes, dendritic cells, macrophages, NK cells, microglia, U937 cells, human cells of humanized mice) (human) (UniProt Q9Y286); experiment: FACS, human primary dendritic cells; isotype control (background)
[5] = target: T15, Siglec-7-Fc (plate immobilized) (human, UniProt Q9Y286 19-357, limits assumed); experiment: RBC solid adhesion assay, plate-coated Siglec-7-Fc; isotype control
T15 construct: also called Siglec-7-Fc protein; immobilized Siglec-7; not shown: Fc part

[6] = target: human Siglec-7 expressed on human cells (primary monocytes, dendritic cells, macrophages, NK cells, microglia, U937 cells, human cells of humanized mice) (human) (UniProt Q9Y286); experiment: FACS, human primary monocytes, 10 ug/ml mAb
[7] = target: human Siglec-7 expressed on human cells (primary monocytes, dendritic cells, macrophages, NK cells, microglia, U937 cells, human cells of humanized mice) (human) (UniProt Q9Y286); experiment: FACS, human primary macrophages, 10 ug/ml mAb
[8] = target: human Siglec-7 expressed on human cells (primary monocytes, dendritic cells, macrophages, NK cells, microglia, U937 cells, human cells of humanized mice) (human) (UniProt Q9Y286); experiment: FACS, human primary dendritic cells, 10 ug/ml mAb
[9] = target: T15, Siglec-7-Fc (plate immobilized); experiment: RBC solid adhesion assay, plate-coated Siglec-7-Fc, antibody 0.5 or 1.0 ug/ml; % of RBC binding without antibody
Description: To determine which antibodies compete with ligand binding to Siglec-7, a red blood cell (RBC) solid adhesion assay was carried out in accordance with standard protocols (Kelm et al., Current Biology, 1994). Red blood cells are highly decorated with glycoproteins containing sialic acids: therefore, the ability of an antibody to block RBC binding to immobilized Siglec-7 can be used to determine ligand interference. Briefly, 5 μg/ml Siglec-7-Fc was coated overnight at RT in 96 well Immunolon plates, then washed with PBS, blocked for one hour with binding buffer (PBS containing %0.25 BSA 1 mM CaCl₂), Siglec-7 antibodies (0.5 μg/ml or 1.0 μg/ml) were bound for one hour at RT with gentle rocking. After removal of unbound antibody, red blood cells were added to each well at a concentration of 3.0×10⁶ cells per ml and incubated at RT for one hour. Unbound RBCs were then carefully washed off 3× with PBS, and water was added to each well for hypotonic lysis of bound RBCs. The plate was transferred to −80° C. for 10 minutes, followed by 37° C. for 15 minutes. Bound RBCs were detected by peroxidase activity, followed by 2N sulfuric acid to stop the reaction. Signal was detected at […]. Data was calculated as a percent of RBC binding to plate bound Siglec-7-Fc in the absence of antibody.

T15 sequence (Q9Y286 19-357 limits assumed): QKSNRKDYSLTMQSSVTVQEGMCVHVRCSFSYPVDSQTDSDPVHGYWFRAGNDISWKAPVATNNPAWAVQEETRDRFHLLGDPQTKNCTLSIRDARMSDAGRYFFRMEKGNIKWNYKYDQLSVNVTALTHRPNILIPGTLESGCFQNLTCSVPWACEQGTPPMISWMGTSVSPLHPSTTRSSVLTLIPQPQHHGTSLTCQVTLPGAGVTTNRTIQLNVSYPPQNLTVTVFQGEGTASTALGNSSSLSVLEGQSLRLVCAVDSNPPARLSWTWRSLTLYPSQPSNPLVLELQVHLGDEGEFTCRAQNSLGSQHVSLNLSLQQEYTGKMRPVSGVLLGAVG
Sequence of human Siglec-7 expressed on human cells (primary monocytes, dendritic cells, macrophages, NK cells, microglia, U937 cells, human cells of humanized mice) (human) (Q9Y286 19-467): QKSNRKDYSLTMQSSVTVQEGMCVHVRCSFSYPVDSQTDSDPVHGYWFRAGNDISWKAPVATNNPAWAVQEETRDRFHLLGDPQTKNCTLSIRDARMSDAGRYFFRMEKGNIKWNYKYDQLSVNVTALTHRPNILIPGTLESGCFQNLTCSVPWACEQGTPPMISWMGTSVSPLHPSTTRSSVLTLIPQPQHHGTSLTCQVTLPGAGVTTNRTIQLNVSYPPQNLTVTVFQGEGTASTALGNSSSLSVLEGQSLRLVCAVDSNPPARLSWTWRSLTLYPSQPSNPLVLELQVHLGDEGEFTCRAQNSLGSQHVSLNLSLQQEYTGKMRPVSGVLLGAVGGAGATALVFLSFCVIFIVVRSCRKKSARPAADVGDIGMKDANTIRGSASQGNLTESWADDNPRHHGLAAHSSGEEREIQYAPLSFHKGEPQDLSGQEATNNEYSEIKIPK
T3 sequence (Q9Y286 19-467 W74A limits assumed): as the sequence (Q9Y286 19-467) above, with W56A counted along it
T5 sequence (Q9Y286 19-467 T103A limits assumed): as the sequence (Q9Y286 19-467) above, with T85A counted along it
T10 sequence (Q9Y286 19-467 M30A limits assumed): as the sequence (Q9Y286 19-467) above, with M12A counted along it
T13 sequence (Q9Y286 19-467 S47A limits assumed): as the sequence (Q9Y286 19-467) above, with S29A counted along it
T6 sequence (Q9Y286 19-467 K104A limits assumed): as the sequence (Q9Y286 19-467) above, with K86A counted along it
T4 sequence (Q9Y286 19-467 N81A limits assumed): as the sequence (Q9Y286 19-467) above, with N63A counted along it
T12 sequence (Q9Y286 19-467 R45A limits assumed): as the sequence (Q9Y286 19-467) above, with R27A counted along it
T8 sequence (Q9Y286 19-467 R124A limits assumed): as the sequence (Q9Y286 19-467) above, with R106A counted along it
T14 sequence (Q9Y286 19-467 F48A limits assumed): as the sequence (Q9Y286 19-467) above, with F30A counted along it
T2 sequence (Q9Y286 19-467 I72A limits assumed): as the sequence (Q9Y286 19-467) above, with I54A counted along it
T1 sequence (Q9Y286 19-467 Y50A limits assumed): as the sequence (Q9Y286 19-467) above, with Y32A counted along it
T7 sequence (Q9Y286 19-467 T107A limits assumed): as the sequence (Q9Y286 19-467) above, with T89A counted along it
T11 sequence (Q9Y286 19-467 V44A limits assumed): as the sequence (Q9Y286 19-467) above, with V26A counted along it
T9 sequence (Q9Y286 19-467 M185A limits assumed): as the sequence (Q9Y286 19-467) above, with M167A counted along it

Row | Binding Reactivity (% WT) (Y50A) | Binding Reactivity (% WT) (I72A) | Binding Reactivity (% WT) (W74A) | Binding Reactivity (% WT) (N81A) | Binding Reactivity (% WT) (T103A) | Binding Reactivity (% WT) (K104A) | Binding Reactivity (% WT) (T107A) | Binding Reactivity (% WT) (R124A) | Binding Reactivity (% WT) (M185A) | Binding Reactivity (% WT) (M30A) | Binding Reactivity (% WT) (V44A) | Binding Reactivity (% WT) (R45A) | Binding Reactivity (% WT) (S47A) | Binding Reactivity (% WT) (F48A) | Percent Siglec-7 Surface Expression, DCs [1] [%] | Percent Siglec-7 Surface Expression, Macrophages [1] [%] | Percent Siglec-7 Surface Expression, Microglia [1] [%] | Percent Siglec-7 Surface Expression, Monocytes [1] [%] | Percent Siglec-7 Surface Expression, NK cells [1] [%] | Percent Siglec-7 Surface Expression, U937 cells [1] [%] | Substance | also measured
1 | 97.9 | 64.2 | 74.9 | 112 | 77.5 | 83.8 | 66.8 | 126 | 69.3 | 84.8 | 68 | 112 | 101 | 113 | – | – | – | – | – | – | 6-434 MAb (antibody) | –
2 | – | – | – | – | – | – | – | – | – | – | – | – | – | – | 101 | 100 | 88.7 | 96.2 | 99.6 | 102 | mIgG1 isotype control antibody | % Positive [2]: 10.6%; MFI [2]: 115; % Positive [3]: 21.7%; MFI [3]: 368; % Positive [4]: 2.8%; MFI [4]: 83; Percent RBC Binding to Siglec-7 [5]: 107%
3 | – | – | – | – | – | – | – | – | – | – | – | – | – | – | 100 | 100 | 88.8 | 96.2 | 101 | 99.3 | mIgG2b isotype control antibody | % Positive [2]: 13.9%; MFI [2]: 128; % Positive [3]: 79.5%; MFI [3]: 2060; % Positive [4]: 5%; MFI [4]: 130; Percent RBC Binding to Siglec-7 [5]: 102%
4 | 142 | 101 | 83.7 | 5.6 | 106 | 115 | 129 | 115 | 74.3 | 100 | 89.3 | 126 | 118 | 158 | – | – | – | – | – | – | S7.7 MAb (antibody) | –
5 | – | – | – | – | – | – | – | – | – | – | – | – | – | – | 96.7 | 98.7 | 80.2 | 99.6 | 103 | 98.2 | commercially available anti-Siglec-7 antibody Mab1138 (R&D Systems; Cat. No. MAB 1138) | % Positive [6]: 19.9%; MFI [6]: 175; % Positive [7]: 98.6%; MFI [7]: 4220; % Positive [8]: 73.9%; MFI [8]: 1450; Percent RBC Binding to Siglec-7 [9]: 97.1%
